Measurements reported in US20180371086A1 (Gilead, published 2018).

Columns and labels:
[1] = molecular target: HIV-1 Env (gp120) of virus WITO (HIV-1 (clone WITO)); test: cell-based or functional assay
[2] = molecular target: HIV-1 Env (gp120) of virus 8398 (HIV-1); test: cell-based or functional assay
[3] = molecular target: HIV-1 Env (gp120) of virus BaL (HIV-1); test: cell-based or functional assay
[4] = molecular target: HIV-1 Env (gp120) of virus 593 (HIV-1); test: cell-based or functional assay
[5] = molecular target: HIV-1 Env (gp120) of virus 1489 (HIV-1); test: cell-based or functional assay
[6] = molecular target: HIV-1 Env (gp120) of virus 7015 (HIV-1); test: cell-based or functional assay
[7] = molecular target: HIV-1 Env (gp120) of virus 8089 (HIV-1); test: cell-based or functional assay
[8] = molecular target: HIV-1 Env (gp120) of virus 7552 (HIV-1); test: cell-based or functional assay
[9] = molecular target: HIV-1 Env (gp120) of virus 727 (HIV-1); test: cell-based or functional assay
[10] = molecular target: HIV-1 Env (gp120) of virus CH058 (HIV-1); test: cell-based or functional assay
[11] = molecular target: HIV-1 Env (gp120) of virus 7467 (HIV-1); test: cell-based or functional assay
[12] = molecular target: HIV-1 Env (gp120) of virus 657 (HIV-1); test: cell-based or functional assay
[13] = molecular target: HIV-1 Env (gp120) of virus 7051 (HIV-1); test: cell-based or functional assay
[14] = molecular target: HIV-1 Env (gp120) of virus CH106 (HIV-1); test: cell-based or functional assay
[15] = molecular target: HIV-1 Env (gp120) of virus 8106 (HIV-1); test: cell-based or functional assay
[16] = molecular target: HIV-1 Env (gp120) of virus 8176 (HIV-1); test: cell-based or functional assay
[17] = molecular target: HIV-1 Env (gp120) of virus REJO (HIV-1); test: cell-based or functional assay
[18] = molecular target: HIV-1 Env (gp120) of virus 7406 (HIV-1); test: cell-based or functional assay
[19] = molecular target: HIV-1 Env (gp120) of virus 712 (HIV-1); test: cell-based or functional assay
[20] = molecular target: HIV-1 Env (gp120) of virus 8320 (HIV-1); test: cell-based or functional assay
[21] = molecular target: HIV-1 Env (gp120) of virus 8339 (HIV-1); test: cell-based or functional assay
[22] = molecular target: HIV-1 Env (gp120) of virus 7576 (HIV-1); test: cell-based or functional assay
Human FcRn = molecular target: T1, Human FcRn (human, UniProt P55899 24-297; P61769 21-119); test: ELISA, FcRn coated on plate; ratio of EC50 at pH 7.0 to pH 6.0
T1 construct: also called neonatal Fc receptor
Experimental: The binding of antibodies to FcRn of various antibody variants at different pHs was determined. A 96-well Maxisorp plate was coated with 100 ul of 5 μg/ml FcRn. The plate was incubated overnight at 4° C., and then blocked with 4% skim milk for 2 hr at room temperature after washing 3 times with 0.05% Tween 20 washing buffer. […] The plate was then washed 3 times and 100 μL of Fab-anti-human Fab-HRP or Goat anti-human IgG-HRP secondary antibody diluted in 4% skimmed milk was added. Plates were then incubated 50 min at room temperature, washed three times, and 100 μL fresh TMB substrate was added. Plates were developed for 3 minutes on bench with gentle shaking. Plate was quenched with 100 μL 1M HCl, shaken briefly, read at A450 on a spectramax m5 plate reader.

[23] = molecular target: HIV-1 Env of virus MGRM-Chronic-B-008 (HIV-1); test: cell-based or functional assay

T1 sequence (P55899 24-297 limits assumed, chain 1 of 2): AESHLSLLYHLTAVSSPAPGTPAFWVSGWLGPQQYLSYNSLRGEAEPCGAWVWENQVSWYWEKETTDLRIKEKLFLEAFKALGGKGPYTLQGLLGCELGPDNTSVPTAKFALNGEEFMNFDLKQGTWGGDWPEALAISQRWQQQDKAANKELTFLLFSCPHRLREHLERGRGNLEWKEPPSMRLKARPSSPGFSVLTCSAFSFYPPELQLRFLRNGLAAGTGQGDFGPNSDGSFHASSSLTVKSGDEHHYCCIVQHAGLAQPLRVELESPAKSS
T1 sequence (P61769 21-119 limits assumed, chain 2 of 2): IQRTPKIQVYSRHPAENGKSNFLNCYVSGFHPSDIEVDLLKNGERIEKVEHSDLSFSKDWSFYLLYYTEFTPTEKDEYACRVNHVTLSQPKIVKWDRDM

B1: PGT121.60 hIgG1/hLambda (antibody)
heavy: QMQLQESGPGLVKPSETLSLTCSVSGASISDSYWSWIRRSPGKGLEWIGYVHKSGDTNYNPSLKSRVHLSLDTSKNQVSLSLTGVTAADSGKYYCARTLHGRRIYGIVAFNEWFTYFYMDVWGTGTQVTVSSASTKGPSVFPLAPSSKSTSGGTAALGCLVKDYFPEPVTVSWNSGALTSGVHTFPAVLQSSGLYSLSSVVTVPSSSLGTQTYICNVNHKPSNTKVDKKVEPKSCDKTHTCPPCPAPELLAGPDVFLFPPKPKDTLMISRTPEVTCVVVDVSHEDPEVKFNWYVDGVEVHNAKTKPREEQYNSTYRVVSVLTVLHQDWLNGKEYKCKVSNKALPLPEEKTISKAKGQPREPQVYTLPPSREEMTKNQVSLTCLVKGFYPSDIAVEWESNGQPENNYKTTPPVLDSDGSFFLYSKLTVDKSRWQQGNVFSCSVLHEALHSHYTQKSLSLSPGK
light: not shown
[1]
  EC50 (µg/mL), killing of HIV-infected cells (Mean): 2.52 µg/mL
  Emax, killing of HIV-infected cells (Mean): 71%
[2]
  EC50 (µg/mL), killing of HIV-infected cells (Mean): 0.067 µg/mL
  Emax, killing of HIV-infected cells (Mean): 76%
[3]
  EC50 (µg/mL), killing of HIV-infected cells (Mean): 0.048 µg/mL
  Emax, killing of HIV-infected cells (Mean): 73%
[4]
  EC50 (µg/mL), killing of HIV-infected cells (Mean): 0.912 µg/mL
  Emax, killing of HIV-infected cells (Mean): 56%
[5]
  EC50 (µg/mL), killing of HIV-infected cells (Mean): 0.276 µg/mL
  Emax, killing of HIV-infected cells (Mean): 70%
[6]
  EC50 (µg/mL), killing of HIV-infected cells (Mean): 0.516 µg/mL
  Emax, killing of HIV-infected cells (Mean): 55%
[7]
  EC50 (µg/mL), killing of HIV-infected cells (Mean): 0.226 µg/mL
  Emax, killing of HIV-infected cells (Mean): 64%
[8]
  EC50 (µg/mL), killing of HIV-infected cells (Mean): 0.011 µg/mL
  Emax, killing of HIV-infected cells (Mean): 66%
[9]
  EC50 (µg/mL), killing of HIV-infected cells (Mean): 0.034 µg/mL
  Emax, killing of HIV-infected cells (Mean): 66%
[10]
  EC50 (µg/mL), killing of HIV-infected cells (Mean): 0.16 µg/mL
  Emax, killing of HIV-infected cells (Mean): 71%
[11]
  EC50 (µg/mL), killing of HIV-infected cells (Mean): 0.139 µg/mL
  Emax, killing of HIV-infected cells (Mean): 54%
[12]
  EC50 (µg/mL), killing of HIV-infected cells (Mean): 1.44 µg/mL
  Emax, killing of HIV-infected cells (Mean): 62%
[13]
  EC50 (µg/mL), killing of HIV-infected cells (Mean): 0.394 µg/mL
  Emax, killing of HIV-infected cells (Mean): 49%
[14]
  EC50 (µg/mL), killing of HIV-infected cells (Mean): 6.17 µg/mL
  Emax, killing of HIV-infected cells (Mean): 46%
[15]
  EC50 (µg/mL), killing of HIV-infected cells (Mean): 0.11 µg/mL
  Emax, killing of HIV-infected cells (Mean): 75%
[16]
  EC50 (µg/mL), killing of HIV-infected cells (Mean): 1.01 µg/mL
  Emax, killing of HIV-infected cells (Mean): 56%
[17]
  EC50 (µg/mL), killing of HIV-infected cells (Mean): 2.6 µg/mL
  Emax, killing of HIV-infected cells (Mean): 0%
[18]
  EC50 (µg/mL), killing of HIV-infected cells (Mean): 0.09 µg/mL
  Emax, killing of HIV-infected cells (Mean): 63%
[19]
  EC50 (µg/mL), killing of HIV-infected cells (Mean): 0.084 µg/mL
  Emax, killing of HIV-infected cells (Mean): 71%
[20]
  EC50 (µg/mL), killing of HIV-infected cells (Mean): 2.12 µg/mL
  Emax, killing of HIV-infected cells (Mean): 0%
[21]
  EC50 (µg/mL), killing of HIV-infected cells (Mean): 3.81 µg/mL
  Emax, killing of HIV-infected cells (Mean): 13%
[22]
  EC50 (µg/mL), killing of HIV-infected cells (Mean): 0.016 µg/mL
  Emax, killing of HIV-infected cells (Mean): 71%
Human FcRn
  Ratio pH 7.0/6.0: 355
[23]
  PGT121.60 IC50: 0.0056 µg/mL
